# From US20060078622A1, “Pharmaceutical formulations containing microparticles or nanoparticles of a delivery agent” (priority 2004, published 2006)
# Read-outs that look alike come from different tables or passages of the source.
# From the text: This value was assumed to be constant in the estimates of absolute bioavailability.
# The portal bioavailability provides an estimate of drug absorption from oral delivery. […] This value is used to estimate bioavailability relative to subcutaneous.
substance,measurement,setting,value
Insulin: Recombinant human zinc insulin,AUC0->T/Dose,"SC (subcutaneous) dosing, average",0.0052 kg·min/mL
same,Avg AUC0->T/Dose,"SC, average of studies 1-8",0.005159 kg·min/mL
same,AUC0->T/Dose,"SC, study 1, […]",0.005601 kg·min/mL
same,AUC0->T/Dose,"SC, study 2, […]",0.006514 kg·min/mL
same,AUC0->T/Dose,"SC, study 3, 0.05 mg/kg",0.005562 kg·min/mL
same,Insulin,"SC, study 3, 0.05 mg/kg, time 0",1.51 uU/ml
same,Insulin,"SC, study 3, 0.05 mg/kg, time 15",98.85 uU/ml
same,Insulin,"SC, study 3, 0.05 mg/kg, time 30",73.59 uU/ml
same,Insulin,"SC, study 3, 0.05 mg/kg, time 45",61.37 uU/ml
same,Insulin,"SC, study 3, 0.05 mg/kg, time 60",58.20 uU/ml
same,Insulin,"SC, study 3, 0.05 mg/kg, time 120",21.34 uU/ml
same,Insulin,"SC, study 3, 0.05 mg/kg, time 180",8.30 uU/ml
same,AUC0->T/Dose,"SC, study 4, 0.05 mg/kg",0.004929 kg·min/mL
same,Insulin,"SC, study 4, 0.05 mg/kg, time 0",0.37 uU/ml
same,Insulin,"SC, study 4, 0.05 mg/kg, time 15",103.42 uU/ml
same,Insulin,"SC, study 4, 0.05 mg/kg, time 30",81.64 uU/ml
same,Insulin,"SC, study 4, 0.05 mg/kg, time 45",68.91 uU/ml
same,Insulin,"SC, study 4, 0.05 mg/kg, time 60",58.58 uU/ml
same,Insulin,"SC, study 4, 0.05 mg/kg, time 90",32.01 uU/ml
same,Insulin,"SC, study 4, 0.05 mg/kg, time 120",21.15 uU/ml
same,AUC0->T/Dose,"SC, study 5, 0.05 mg/kg",0.001013 kg·min/mL
same,Insulin,"SC, study 5, 0.05 mg/kg, time 0",0 uU/ml
same,Insulin,"SC, study 5, 0.05 mg/kg, time 15",34.90 uU/ml
same,Insulin,"SC, study 5, 0.05 mg/kg, time 30",9.71 uU/ml
same,Insulin,"SC, study 5, 0.05 mg/kg, time 45",16.57 uU/ml
same,Insulin,"SC, study 5, 0.05 mg/kg, time 60",10.46 uU/ml
same,Insulin,"SC, study 5, 0.05 mg/kg, time 90",2.94 uU/ml
same,Insulin,"SC, study 5, 0.05 mg/kg, time 120",5.05 uU/ml
same,AUC0->T/Dose,"SC, study 6, 0.05 mg/kg",0.007644 kg·min/mL
same,Insulin,"SC, study 6, 0.05 mg/kg, time 15",191.67 uU/ml
same,Insulin,"SC, study 6, 0.05 mg/kg, time 30",119.71 uU/ml
same,Insulin,"SC, study 6, 0.05 mg/kg, time 45",121.33 uU/ml
same,Insulin,"SC, study 6, 0.05 mg/kg, time 60",74.65 uU/ml
same,Insulin,"SC, study 6, 0.05 mg/kg, time 90",42.88 uU/ml
same,Insulin,"SC, study 6, 0.05 mg/kg, time 120",25.65 uU/ml
same,AUC0->T/Dose,"SC, study 7, 0.05 mg/kg",0.005932 kg·min/mL
same,Tmax,"SC, study 7, 0.05 mg/kg",30 min
same,Insulin,"SC, study 7, 0.05 mg/kg, time 0",5.85 uU/ml
same,Insulin,"SC, study 7, 0.05 mg/kg, time 15",90.29 uU/ml
same,Insulin,"SC, study 7, 0.05 mg/kg, time 30",125.96 uU/ml
same,Insulin,"SC, study 7, 0.05 mg/kg, time 45",67.83 uU/ml
same,Insulin,"SC, study 7, 0.05 mg/kg, time 60",78.19 uU/ml
same,Insulin,"SC, study 7, 0.05 mg/kg, time 90",45.77 uU/ml
same,Insulin,"SC, study 7, 0.05 mg/kg, time 120",18.24 uU/ml
same,AUC0->T/Dose,"SC, study 8, 0.05 mg/kg",0.004079 kg·min/mL
same,Insulin,"SC, study 8, 0.05 mg/kg, time 15",131.71 uU/ml
same,Insulin,"SC, study 8, 0.05 mg/kg, time 30",70.90 uU/ml
same,Insulin,"SC, study 8, 0.05 mg/kg, time 45",66.28 uU/ml
same,Insulin,"SC, study 8, 0.05 mg/kg, time 60",0.59 uU/ml
same,Insulin,"SC, study 8, 0.05 mg/kg, time 90",33.96 uU/ml
same,Insulin,"SC, study 8, 0.05 mg/kg, time 120",14.64 uU/ml
same,FPE (fH),individual animals n 1-5,0.18
same,AUC-IP,"intraportal administration, Average",9.65
same,average insulin AUC0→t/Dose,subcutaneous dosing,0.00516 kg·min/mL
same,AUC-JV,"systemic administration, Average",15.53
